Results from PMC8770954.

Assays:
Experiment in all cases: SPR; imaging SPR (IBIS MX96); IgG immobilised on a carboxymethyldextran sensor (CMD200M) by carbodiimide chemistry with a Continuous Flow Microspotter, printed at 300 and 150 nM; soluble receptor as analyte from 20 uM, 1:3 over 8 points; 5 min association and 5 min dissociation; equilibrium KD (Scrubber 2)
[1] = target: RhDH827 IgG1 (rhesusized variant of human DH827) (rhesus macaque (Macaca mulatta))
[2] = target: Rh7B2 IgG1 (rhesusized variant of human 7B2) (rhesus macaque (Macaca mulatta))
Rh7B2 IgG1 (rhesusized variant of human 7B2) (rhesus macaque (Macaca mulatta)), sequence (heavy, as listed by the source, chain 1 of 2): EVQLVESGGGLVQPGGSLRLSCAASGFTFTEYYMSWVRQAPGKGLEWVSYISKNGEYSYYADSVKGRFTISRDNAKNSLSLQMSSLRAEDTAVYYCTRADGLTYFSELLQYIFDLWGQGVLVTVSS
Rh7B2 IgG1 (rhesusized variant of human 7B2) (rhesus macaque (Macaca mulatta)), sequence (light, as listed by the source, chain 2 of 2): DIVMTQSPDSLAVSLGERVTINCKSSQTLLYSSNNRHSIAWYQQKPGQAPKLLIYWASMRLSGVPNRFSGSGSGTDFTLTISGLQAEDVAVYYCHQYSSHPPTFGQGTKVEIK

[3] = target: RhDH677.3 IgG1 (rhesusized variant of human DH677.3) (rhesus macaque (Macaca mulatta))
RhDH677.3 IgG1 (rhesusized variant of human DH677.3) (rhesus macaque (Macaca mulatta)), sequence (heavy, as listed by the source, chain 1 of 2): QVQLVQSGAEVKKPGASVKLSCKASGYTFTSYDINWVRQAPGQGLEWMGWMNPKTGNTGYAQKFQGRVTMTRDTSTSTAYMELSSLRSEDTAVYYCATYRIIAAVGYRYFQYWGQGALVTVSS
RhDH677.3 IgG1 (rhesusized variant of human DH677.3) (rhesus macaque (Macaca mulatta)), sequence (light, as listed by the source, chain 2 of 2): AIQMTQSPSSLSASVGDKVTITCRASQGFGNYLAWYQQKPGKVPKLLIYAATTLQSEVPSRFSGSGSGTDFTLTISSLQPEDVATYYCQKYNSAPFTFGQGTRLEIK

human FcγRIIIa (F158), sequence (P08637 17-208): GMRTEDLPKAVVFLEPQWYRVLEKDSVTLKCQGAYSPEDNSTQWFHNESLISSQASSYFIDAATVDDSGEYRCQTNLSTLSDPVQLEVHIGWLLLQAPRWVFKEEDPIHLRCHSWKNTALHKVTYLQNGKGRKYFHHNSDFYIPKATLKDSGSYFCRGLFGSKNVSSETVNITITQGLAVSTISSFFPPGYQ
RhDH827 IgG1 (rhesusized variant of human DH827) (rhesus macaque (Macaca mulatta)), sequence (heavy, as listed by the source, chain 1 of 2): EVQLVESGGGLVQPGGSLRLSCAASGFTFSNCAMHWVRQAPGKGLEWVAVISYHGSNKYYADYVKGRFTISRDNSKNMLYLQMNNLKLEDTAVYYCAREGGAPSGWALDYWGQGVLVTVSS
RhDH827 IgG1 (rhesusized variant of human DH827) (rhesus macaque (Macaca mulatta)), sequence (light, as listed by the source, chain 2 of 2): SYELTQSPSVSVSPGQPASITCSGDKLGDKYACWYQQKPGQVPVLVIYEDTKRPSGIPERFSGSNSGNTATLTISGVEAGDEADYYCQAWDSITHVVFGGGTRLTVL

Substance | Kd [1] | Kd [2] | Kd [3]
human FcγRIIa (H131) (from UniProt P12318 34-217) (receptor) | 3.7 µM | 4.4 µM | 
rhesus macaque FcγRIIb-1 (receptor) | 3.7 µM | 3.7 µM | 3.7 µM
rhesus macaque FcγRIIa-2 (receptor) | 5.5 µM | 5.5 µM | 4.9 µM
human FcγRIIIa (F158) (from UniProt P08637 17-208) (receptor) | 4.1 µM | 3.8 µM | 3.8 µM
rhesus macaque FcγRIIa-4 (receptor) | 6.9 µM | 7.7 µM | 6.2 µM
rhesus macaque FcγRIIa-1 (receptor) | 5.7 µM | 6 µM | 4.7 µM
human FcγRIIb (from UniProt P31994 43-217) (receptor) |  | 8.5 µM | 7.9 µM
